Test results taken from the Immune Epitope Database (IEDB).

Tests used:
Test in all cases: IEDB peptide-MHC binding, purified MHC/competitive/radioactivity; filed as Kd, often an IC50 or EC50 that approximates it; ≥ and ≤ were set here for values at or beyond the usual limits of such assays
HLA-A*11:01 = molecular target: HLA-A*11:01
HLA-A*31:01 = molecular target: HLA-A*31:01
HLA-A*33:01 = molecular target: HLA-A*33:01
HLA-A*03:01 = molecular target: HLA-A*03:01
HLA-A*68:01 = molecular target: HLA-A*68:01
[1] = source organism: SARS coronavirus Tor2
[2] = source organism: Dengue virus 2 Jamaica/1409/1983
[3] = source organism: Dengue virus 1 Brazil/97-11/1997
[4] = source organism: Dengue virus 4 Philippines/H241/1956
[5] = source organism: Vaccinia virus WR
[6] = source organism: Mammarenavirus machupoense
[7] = source organism: Dengue virus 3 Martinique/1243/1999
[8] = source organism: Mammarenavirus brazilense
[9] = source organism: Triticum aestivum

AAYYFMKFR
Kd (HLA-A*11:01; [1]): 47.2 nM
Kd (HLA-A*31:01; [1]): 1.23 nM
Kd (HLA-A*33:01; [1]): 117 nM
Kd (HLA-A*03:01; [1]): 124 nM
Kd (HLA-A*68:01; [1]): 15.4 nM

AINVLRGFR
Kd (HLA-A*31:01; [2]): 3.72 nM

ALCTLLHLHR
Kd (HLA-A*11:01; [1]): 470 nM
Kd (HLA-A*31:01; [1]): 51 nM
Kd (HLA-A*33:01; [1]): 401 nM
Kd (HLA-A*03:01; [1]): 301 nM
Kd (HLA-A*68:01; [1]): 3410 nM

ALFLEEMLR
Kd (HLA-A*03:01; [2]): 304 nM

ALSEAREHLK
Kd (HLA-A*11:01; [1]): 141 nM
Kd (HLA-A*31:01; [1]): 5320 nM
Kd (HLA-A*33:01; [1]): ≥ 70000 nM
Kd (HLA-A*03:01; [1]): 80.6 nM
Kd (HLA-A*68:01; [1]): 2960 nM

ASCDAIMTR
Kd (HLA-A*11:01; [1]): 79.4 nM
Kd (HLA-A*31:01; [1]): 81.3 nM
Kd (HLA-A*33:01; [1]): 83.5 nM
Kd (HLA-A*03:01; [1]): 19400 nM
Kd (HLA-A*68:01; [1]): 1440 nM

ATTFVTPMLR
Kd (HLA-A*11:01; [2]): 95.2 nM
Kd (HLA-A*31:01; [2]): 91.1 nM
Kd (HLA-A*68:01; [2]): 16.2 nM

CTLPPLRFR
Kd (HLA-A*31:01; [3]): ≥ 77900 nM
Kd (HLA-A*33:01; [3]): 4.13 nM

CTLPPLRYR
Kd (HLA-A*31:01; [2]): 2.9 nM
Kd (HLA-A*33:01; [2]): 12.1 nM

CVYNMMGKR
Kd (HLA-A*31:01; [4]): 137 nM
Kd (HLA-A*03:01; [4]): 63.4 nM
Kd (HLA-A*68:01; [4]): 117 nM

DMQKFTILEY
Kd (HLA-A*11:01; [5]): 3530 nM
Kd (HLA-A*31:01; [5]): ≥ 70000 nM
Kd (HLA-A*33:01; [5]): ≥ 70000 nM
Kd (HLA-A*03:01; [5]): ≥ 53500 nM
Kd (HLA-A*68:01; [5]): ≥ 24500 nM

DSEPISILDR
Kd (HLA-A*11:01; [5]): ≥ 61400 nM
Kd (HLA-A*31:01; [5]): ≥ 52800 nM
Kd (HLA-A*33:01; [5]): 4620 nM
Kd (HLA-A*03:01; [5]): ≥ 70100 nM
Kd (HLA-A*68:01; [5]): 518 nM

DTIVSRSSR
Kd (HLA-A*11:01; [5]): ≥ 77900 nM
Kd (HLA-A*31:01; [5]): 1410 nM
Kd (HLA-A*33:01; [5]): 5.71 nM
Kd (HLA-A*03:01; [5]): ≥ 78000 nM
Kd (HLA-A*68:01; [5]): 5.79 nM

DTSECPNERR
Kd (HLA-A*68:01; [4]): 124 nM

DVSLIIEYK
Kd (HLA-A*11:01; [5]): 152 nM
Kd (HLA-A*31:01; [5]): 72.2 nM
Kd (HLA-A*33:01; [5]): 111 nM
Kd (HLA-A*03:01; [5]): 16100 nM
Kd (HLA-A*68:01; [5]): 3.57 nM

EAVYGNIKHK
Kd (HLA-A*11:01; [5]): 11700 nM
Kd (HLA-A*31:01; [5]): 13900 nM
Kd (HLA-A*33:01; [5]): ≥ 70000 nM
Kd (HLA-A*03:01; [5]): 18700 nM
Kd (HLA-A*68:01; [5]): 62.3 nM

EKFGHFCKYH
Kd (HLA-A*11:01; [6]): ≥ 69700 nM
Kd (HLA-A*31:01; [6]): ≥ 32800 nM
Kd (HLA-A*33:01; [6]): ≥ 70000 nM
Kd (HLA-A*03:01; [6]): ≥ 70000 nM
Kd (HLA-A*68:01; [6]): ≥ 70100 nM

ELTTVFIKY
Kd (HLA-A*11:01; [5]): 6690 nM
Kd (HLA-A*31:01; [5]): 1820 nM
Kd (HLA-A*33:01; [5]): 5450 nM
Kd (HLA-A*03:01; [5]): 269 nM
Kd (HLA-A*68:01; [5]): 855 nM

ENMEVEIWTR
Kd (HLA-A*33:01; [4]): 106 nM

EQLQLLMPLK
Kd (HLA-A*11:01; [1]): 150 nM
Kd (HLA-A*31:01; [1]): 2940 nM
Kd (HLA-A*33:01; [1]): 2370 nM
Kd (HLA-A*03:01; [1]): 1200 nM
Kd (HLA-A*68:01; [1]): 1790 nM

ESALNDTWK
Kd (HLA-A*68:01; [2]): 90.5 nM

ETCVYNMMGK
Kd (HLA-A*11:01; [2]): 1170 nM
Kd (HLA-A*68:01; [2]): 19.1 nM

FFLRKLTSR
Kd (HLA-A*31:01; [7]): 47.7 nM
Kd (HLA-A*33:01; [7]): 46.6 nM

FFLSGRGLGK
Kd (HLA-A*03:01; source organism: Dengue virus 1 Nauru/West Pac/1974): 12 nM

FFTELENKK
Kd (HLA-A*11:01; [5]): 6190 nM
Kd (HLA-A*31:01; [5]): ≥ 25700 nM
Kd (HLA-A*33:01; [5]): ≥ 30900 nM
Kd (HLA-A*03:01; [5]): ≥ 78000 nM
Kd (HLA-A*68:01; [5]): 3360 nM

FSGKSTELIR
Kd (HLA-A*11:01; [5]): 17100 nM
Kd (HLA-A*31:01; [5]): 1920 nM
Kd (HLA-A*33:01; [5]): 1790 nM
Kd (HLA-A*03:01; [5]): ≥ 38100 nM
Kd (HLA-A*68:01; [5]): 881 nM

FTTSLSLHK
Kd (HLA-A*11:01; [1]): 181 nM
Kd (HLA-A*31:01; [1]): 2860 nM
Kd (HLA-A*33:01; [1]): 1130 nM
Kd (HLA-A*03:01; [1]): 1350 nM
Kd (HLA-A*68:01; [1]): 271 nM

GLCAHILLY
Kd (HLA-A*11:01; [5]): 37.5 nM
Kd (HLA-A*31:01; [5]): 18000 nM
Kd (HLA-A*33:01; [5]): 8360 nM
Kd (HLA-A*03:01; [5]): 14 nM
Kd (HLA-A*68:01; [5]): 3200 nM

GLYGNGVVTK
Kd (HLA-A*03:01; [7]): 3.65 nM

GSFQEFRSNH
Kd (HLA-A*11:01; [8]): 7130 nM
Kd (HLA-A*31:01; [8]): 1520 nM
Kd (HLA-A*33:01; [8]): ≥ 45200 nM
Kd (HLA-A*03:01; [8]): ≥ 28700 nM
Kd (HLA-A*68:01; [8]): ≥ 70100 nM

GVCGIRSTTR
Kd (HLA-A*31:01; [7]): 27.2 nM

HAIILHQQQK
Kd (HLA-A*11:01; [9]): 1130 nM
Kd (HLA-A*31:01; [9]): 11000 nM
Kd (HLA-A*33:01; [9]): ≥ 44400 nM
Kd (HLA-A*03:01; [9]): 1270 nM
Kd (HLA-A*68:01; [9]): 10.4 nM

IAEYIAGLK
Kd (HLA-A*11:01; [5]): 147 nM
Kd (HLA-A*31:01; [5]): 8070 nM
Kd (HLA-A*33:01; [5]): 1320 nM
Kd (HLA-A*03:01; [5]): 63.3 nM
Kd (HLA-A*68:01; [5]): 1.27 nM

IFLRKLTSR
Kd (HLA-A*31:01; [4]): 39 nM
Kd (HLA-A*33:01; [4]): 108 nM

IFMRDWNSKY
Kd (HLA-A*11:01; [5]): ≥ 20500 nM
Kd (HLA-A*31:01; [5]): 2480 nM
Kd (HLA-A*33:01; [5]): 13700 nM
Kd (HLA-A*03:01; [5]): ≥ 33300 nM
Kd (HLA-A*68:01; [5]): 10900 nM

ILNKIVQLPK
Kd (HLA-A*11:01; [5]): 289 nM
Kd (HLA-A*31:01; [5]): 2070 nM
Kd (HLA-A*33:01; [5]): ≥ 70000 nM
Kd (HLA-A*03:01; [5]): 17.3 nM
Kd (HLA-A*68:01; [5]): 8300 nM

IQLDEKSSIK
Kd (HLA-A*11:01; [5]): 4.57 nM
Kd (HLA-A*31:01; [5]): 81.1 nM
Kd (HLA-A*33:01; [5]): ≥ 70000 nM
Kd (HLA-A*03:01; [5]): 1.25 nM
Kd (HLA-A*68:01; [5]): 551 nM

ISELSRLRY
Kd (HLA-A*11:01; [5]): 10800 nM
Kd (HLA-A*31:01; [5]): 5370 nM
Kd (HLA-A*33:01; [5]): ≥ 77700 nM
Kd (HLA-A*03:01; [5]): 6570 nM
Kd (HLA-A*68:01; [5]): ≥ 22700 nM

ISQFSYKELY
Kd (HLA-A*11:01; [5]): 1250 nM
Kd (HLA-A*31:01; [5]): 9580 nM
Kd (HLA-A*33:01; [5]): ≥ 46800 nM
Kd (HLA-A*03:01; [5]): 5720 nM
Kd (HLA-A*68:01; [5]): 7760 nM

KAIKILTGFR
Kd (HLA-A*31:01; [4]): 7.75 nM

KIIETYLGR
Kd (HLA-A*11:01; [5]): ≥ 77900 nM
Kd (HLA-A*31:01; [5]): ≥ 77900 nM
Kd (HLA-A*33:01; [5]): ≥ 77700 nM
Kd (HLA-A*03:01; [5]): ≥ 78000 nM
Kd (HLA-A*68:01; [5]): ≥ 77700 nM

KLKPRWLDAR
Kd (HLA-A*31:01; [2]): 1.39 nM

KLLQTLVLK
Kd (HLA-A*11:01; [1]): 1070 nM
Kd (HLA-A*31:01; [1]): 2480 nM
Kd (HLA-A*33:01; [1]): ≥ 44900 nM
Kd (HLA-A*03:01; [1]): 863 nM
Kd (HLA-A*68:01; [1]): ≥ 39400 nM

KLSAGVEFLK
Kd (HLA-A*11:01; [1]): 27.9 nM
Kd (HLA-A*31:01; [1]): 516 nM
Kd (HLA-A*33:01; [1]): 6100 nM
Kd (HLA-A*03:01; [1]): 14.9 nM
Kd (HLA-A*68:01; [1]): 101 nM
